Target: metabotropic glutamate receptor 5 (mouse (endogenous in brain cortex)) (UniProt Q3UVX5)
Assay: co-IP; mGluR5 immunoprecipitated with rabbit anti-mGluR5 on protein G magnetic beads from brain cortex lysates of 1 month-old WT and SPKO (synaptopodin knockout) mice; 20 mM Tris-HCl pH 7.4, 5 mM EDTA, 100 mM NaCl, 1% Triton X-100; overnight at 4 °C; immunoblot with anti-pan-Homer

UniProt Q3UVX5, sequence (Q3UVX5 19-1203): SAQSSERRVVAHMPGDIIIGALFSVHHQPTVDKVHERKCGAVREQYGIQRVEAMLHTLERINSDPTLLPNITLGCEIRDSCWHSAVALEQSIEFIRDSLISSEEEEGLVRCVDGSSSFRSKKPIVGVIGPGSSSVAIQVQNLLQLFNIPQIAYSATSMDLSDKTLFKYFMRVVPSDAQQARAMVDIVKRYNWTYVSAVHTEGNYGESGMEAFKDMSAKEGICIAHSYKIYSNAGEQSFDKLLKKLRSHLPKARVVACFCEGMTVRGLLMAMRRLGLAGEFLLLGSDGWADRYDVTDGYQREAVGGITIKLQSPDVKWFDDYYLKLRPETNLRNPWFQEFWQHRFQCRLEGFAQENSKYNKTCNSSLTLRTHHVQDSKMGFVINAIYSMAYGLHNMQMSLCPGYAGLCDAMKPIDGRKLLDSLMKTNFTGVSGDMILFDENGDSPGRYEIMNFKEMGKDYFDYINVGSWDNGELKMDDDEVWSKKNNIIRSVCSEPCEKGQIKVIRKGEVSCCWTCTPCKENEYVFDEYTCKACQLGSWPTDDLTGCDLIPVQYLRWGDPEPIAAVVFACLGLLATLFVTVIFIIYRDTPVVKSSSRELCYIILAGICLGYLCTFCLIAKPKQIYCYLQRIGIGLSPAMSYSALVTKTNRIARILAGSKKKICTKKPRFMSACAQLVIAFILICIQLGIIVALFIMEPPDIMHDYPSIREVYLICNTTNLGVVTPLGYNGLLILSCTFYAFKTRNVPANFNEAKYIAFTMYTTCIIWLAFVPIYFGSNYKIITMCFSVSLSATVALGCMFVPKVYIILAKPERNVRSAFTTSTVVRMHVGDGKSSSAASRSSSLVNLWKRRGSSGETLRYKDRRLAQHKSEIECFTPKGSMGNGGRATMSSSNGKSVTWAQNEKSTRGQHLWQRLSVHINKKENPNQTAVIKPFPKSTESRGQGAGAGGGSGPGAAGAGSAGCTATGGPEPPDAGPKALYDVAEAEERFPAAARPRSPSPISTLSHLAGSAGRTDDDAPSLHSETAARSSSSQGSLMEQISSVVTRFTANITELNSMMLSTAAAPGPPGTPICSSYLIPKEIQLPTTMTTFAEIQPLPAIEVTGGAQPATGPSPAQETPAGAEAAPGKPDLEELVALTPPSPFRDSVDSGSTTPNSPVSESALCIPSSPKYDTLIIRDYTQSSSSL

coprecipitated Homer, SPKO/WT ratio: 0.4
Substance: Homer (long form) (from UniProt Q9Z2Y3 1-366) (natural protein)
